Target: the molecule itself
Test: AUC; sedimentation velocity, twofold dilution series starting from 6.5 mg/ml, 50 000 rev/min, 20°C, absorbance (280 nm) and interference optics, c(s) model in SEDFIT; buffer similar to that used for crystallization; monomer to dimer; self-association not saturated

B1: HIV integrase-binding domain (IBD) of lens epithelium-derived growth factor (LEDGF)/p75, His tag cleaved (domain or fragment, human)
chain: GGSMGSGGGGSGGGGSGGGGAAAMETSMDSRLQRIHAEIKNSLKIDNLDVNRCIEALDELASLQVTMQQAQKHTEMITTLKKIRRFKVSQVIMEKSTMLYNKFKNMFLVGE
notes: 24-amino-acid linker ending with methionine that precedes Glu345 of the IBD; left on the protein after TEV cleavage (ENLYFQ/G); Intact mass 11 882 Da measured against 11 881.66 Da calculated; The linker was not visible in the electron density; also called IBD protein; free IBD; source: E. coli B834 (DE3), purified (IMAC, SEC, TEV cleavage, reverse IMAC) for crystallization; E. coli C41 (DE3), …
Kd: ~2000 µM | stoichiometry N: 2

Reference: paper PMC5947699, “Cloning, purification and structure determination of the HIV integrase-binding domain of lens epithelium-derived growth factor” (Acta Crystallographica. Section F, Structural Biology …, 2018)
